Reference: PMC4370339 (Journal of molecular biology, 2014)
Residue numbers refer to the chain shown, from its start. Numbers in names are those of the source.

T1: SecBE77K parent carrying A129C (b) (Escherichia coli, UniProt P0AG86 1-155, E77K | A129C | C102L)
T1 sequence (looked up): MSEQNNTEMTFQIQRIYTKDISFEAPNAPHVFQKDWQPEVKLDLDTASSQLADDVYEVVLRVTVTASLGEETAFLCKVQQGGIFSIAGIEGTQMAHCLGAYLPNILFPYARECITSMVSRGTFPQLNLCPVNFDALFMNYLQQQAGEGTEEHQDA

T2: SecBA129C (A, otherwise wild-type) (Escherichia coli, UniProt P0AG86 1-155, A129C | C102L)
T2 sequence (looked up): T1 sequence (looked up) with K77E

T3: SecBQ12C E77K (B) (Escherichia coli, UniProt P0AG86 1-155, Q12C | E77K | C102L)
T3 sequence (looked up): T1 sequence (looked up) with Q12C, C129A

B1: SecBL75Q (natural protein, Escherichia coli)
chain: MSEQNNTEMTFQIQRIYTKDISFEAPNAPHVFQKDWQPEVKLDLDTASSQLADDVYEVVLRVTVTASLGEETAFQCEVQQGGIFSIAGIEGTQMAHCLGAYCPNILFPYARECITSMVSRGTFPQLNLAPVNFDALFMNYLQQQAGEGTEEHQ
B2: SecB142 parent carrying Q12C (C) (domain or fragment, Escherichia coli, UniProt P0AG86 1-142, looked up)
chain: MSEQNNTEMTFCIQRIYTKDISFEAPNAPHVFQKDWQPEVKLDLDTASSQLADDVYEVVLRVTVTASLGEETAFLCEVQQGGIFSIAGIEGTQMAHCLGAYLPNILFPYARECITSMVSRGTFPQLNLAPVNFDALFMNYLQ
B3: SecB142,E77K parent carrying Q12C (D) (domain or fragment, Escherichia coli, UniProt P0AG86 1-142, looked up)
chain: B2 chain with E77K
B4: SecB wild-type (natural protein, Escherichia coli, UniProt P0AG86 1-155, looked up)
chain: T1 sequence (looked up) with K77E, L102C, C129A
B5: SecB wild-type parent carrying Q12C (A) (natural protein, Escherichia coli, UniProt P0AG86 1-155, looked up)
chain: T1 sequence (looked up) with Q12C, K77E, C129A
B6: SecB142,E77K parent carrying A129C (d) (domain or fragment, Escherichia coli, UniProt P0AG86 1-142, looked up)
chain: B2 chain with C12Q, E77K, A129C
B7: SecB142 parent carrying A129C (c) (domain or fragment, Escherichia coli, UniProt P0AG86 1-142, looked up)
chain: B2 chain with C12Q, A129C

Columns and labels:
SecB (Escherichia coli) = SecB (Escherichia coli) (UniProt P0AG86); experiment: ITC; details: cited from earlier work
SecA [1] = target: T4, SecA (Escherichia coli, UniProt P10408 1-901); experiment: SEC-MALS
T4 sequence (P10408 whole entry): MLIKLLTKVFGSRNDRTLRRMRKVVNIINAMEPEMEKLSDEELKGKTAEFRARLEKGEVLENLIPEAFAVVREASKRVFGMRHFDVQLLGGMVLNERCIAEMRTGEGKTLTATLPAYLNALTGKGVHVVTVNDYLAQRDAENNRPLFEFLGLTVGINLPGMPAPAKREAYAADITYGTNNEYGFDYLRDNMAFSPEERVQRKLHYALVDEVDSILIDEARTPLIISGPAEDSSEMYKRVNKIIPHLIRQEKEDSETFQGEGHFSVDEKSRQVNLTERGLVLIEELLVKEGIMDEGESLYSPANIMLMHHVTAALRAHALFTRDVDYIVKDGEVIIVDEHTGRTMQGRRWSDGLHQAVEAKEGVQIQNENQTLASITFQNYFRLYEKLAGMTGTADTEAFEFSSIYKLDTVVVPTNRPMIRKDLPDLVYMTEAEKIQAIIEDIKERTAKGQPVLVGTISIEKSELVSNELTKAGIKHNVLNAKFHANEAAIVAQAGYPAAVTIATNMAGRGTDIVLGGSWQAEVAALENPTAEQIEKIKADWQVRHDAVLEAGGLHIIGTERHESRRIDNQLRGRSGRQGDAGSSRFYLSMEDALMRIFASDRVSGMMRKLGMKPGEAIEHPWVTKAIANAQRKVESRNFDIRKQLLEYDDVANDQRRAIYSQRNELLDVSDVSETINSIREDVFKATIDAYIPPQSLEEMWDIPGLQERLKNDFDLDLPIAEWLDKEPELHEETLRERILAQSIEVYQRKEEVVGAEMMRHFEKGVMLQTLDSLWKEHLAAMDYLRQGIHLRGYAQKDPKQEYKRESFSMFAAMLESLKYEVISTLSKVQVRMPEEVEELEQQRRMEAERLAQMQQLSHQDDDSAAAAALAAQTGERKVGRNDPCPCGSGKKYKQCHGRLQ

[2] = target: T1, SecBE77K parent carrying A129C (b); experiment: cross-linking
[3] = target: B6; experiment: cross-linking
[4] = target: T2, SecBA129C (A, otherwise wild-type); experiment: cross-linking
[5] = target: B7; experiment: cross-linking
AUC = target: the molecule itself; experiment: AUC
SecA [6] = target: T4, SecA; experiment: SEC
[7] = target: B5; experiment: cross-linking
SecBQ12C E77K (B) = target: T3, SecBQ12C E77K (B); experiment: cross-linking

Molecule: SecA 2-11 (from UniProt P10408)
Kd (SecB (Escherichia coli)): 30 µM

Molecule: B1
stoichiometry N (SecA [1]): 1 SecA protomers per SecB tetramer

Molecule: B2
binding result [2]: binds
binding result [3]: binds
binding result [4]: binds

Molecule: B3
binding result [2]: binds
binding result [5]: binds
binding result [4]: binds

Molecule: B4
binding result (AUC): binds
relative affinity (ratio of Kds) against radiolabeled SecB (SecA [6]): 0.82 unitless

Molecule: B5
binding result [4]: binds

Molecule: B6
binding result [7]: binds

Molecule: B7
binding result (SecBQ12C E77K (B)): binds
